Molecular target: the molecule itself
Test: immunoblotting of unboiled samples

B1: adenovirus penton base, recombinant, expressed in COS-7 cells (natural protein)
chain: MRRAAMYEEGPPPSYESVVSAAPVAAALGSPFDAPLDPPFVPPRYLRPTGGRNSIRYSELAPLFDTTRVYLVDNKSTDVASLNYQNDHSNFLTTVIQNNDYSPGEASTQTINLDDRSHWGGDLKTILHTNMPNVNEFMFTNKFKARVMVSRLPTKDNQVELKYEWVEFTLPEGNYSETMTIDLMNNAIVEHYLKVGRQNGVLESDIGVKFDTRNFRLGFDPVTGLVMPGVYTNEAFHPDIILLPGCGVDFTHSRLSNLLGIRKRQPFQEGFRITYDDLEGGNIPALLDVDAYQASLKDDTEQGGGGAGGSNSSGSGAEENSNAAAAAMQPVEDMNDHAIRGDTFATRAEEKRAEAEAAAEAAAPAAQPEVEKPQKKPVIKPLTEDSKKRSYNLISNDSTFTQYRSWYLAYNYGDPQTGIRSWTLLCTPDVTCGSEQVYWSLPDMMQDPVTFRSTRQISNFPVVGAELLPVHSKSFYNDQAVYSQLIRQFTSLTHVFNRFPENQILARPPAPTITTVSENVPALTDHGTLPLRNSIGGVQRVTITDARRRTCPYVYKALGIVSPRVLSSRTF
For B1, the “stoichiometry N” value was 5.

Reference: article PMC2810746 (Cell host & microbe, 2009)
